# Results: article PMC2745277
# T1: SurR (Pyrococcus furiosus, UniProt Q8U4J2 1-232)
# T1 sequence: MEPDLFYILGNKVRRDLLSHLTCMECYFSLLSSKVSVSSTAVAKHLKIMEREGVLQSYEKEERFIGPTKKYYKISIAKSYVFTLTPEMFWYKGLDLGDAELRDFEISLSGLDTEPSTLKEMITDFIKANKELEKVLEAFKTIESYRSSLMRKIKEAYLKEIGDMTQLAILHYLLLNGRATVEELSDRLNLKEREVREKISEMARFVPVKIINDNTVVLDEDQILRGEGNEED
# B1: SELEX-derived 40-bp probe GTTcacAAC (dsDNA)
# DNA 1: GCTTCATCCGTGACGTTCACAACCAAATAGATTGAGGATC
# DNA 2: GATCCTCAATCTATTTGGTTGTGAACGTCACGGATGAAGC
# Molecular target: T1, SurR
# Test: EMSA
binder,measurement,value
B1,binding result,binds
